Data from IntAct's records for PubMed 35512704.

B1: Speckle-type POZ protein (Homo sapiens), O43791 (parent)
chain: MSRVPSPPPPAEMSSGPVAESWCYTQIKVVKFSYMWTINNFSFCREEMGEVIKSSTFSSGANDKLKWCLRVNPKGLDEESKDYLSLYLLLVSCPKSEVRAKFKFSILNAKGEETKAMESQRAYRFVQGKDWGFKKFIRRDFLLDEANGLLPDDKLTLFCEVSVVQDSVNISGQNTMNMVKVPECRLADELGGLWENSRFTDCCLCVAGQEFQAHKAILAARSPVFSAMFEHEMEESKKNRVEINDVEPEVFKEMMCFIYTGKAPNLDKMADDLLAAADKYALERLKVMCEDALCSNLSVENAAEILILADLHSADQLKTQAVDFINYHASDVLETSGWKSMVVSHPHLVAEAYRSLASAQCPFLGPPRKRLKQS

Variants of: B1
Conditions: with e2f8_human E2F8, A0AVK6

Variant | effect of a mutation on the interaction
MSRVPSPPPPAEMSSGPVAESWCYTQIKVVKFSYMWTINNFSFCREEMGEVIKSSTFSSGANDKLKWCLRVNPKGLDEESKDYLSLYLLLVSCPKSEVRAKFKFSILNAKGEETKAMESQRAYRFVQGKDWGVKKFIRRDFLLDEANGLLPDDKLTLFCEVSVVQDSVNISGQNTMNMVKVPECRLADELGGLWENSRFTDCCLCVAGQEFQAHKAILAARSPVFSAMFEHEMEESKKNRVEINDVEPEVFKEMMCFIYTGKAPNLDKMADDLLAAADKYALERLKVMCEDALCSNLSVENAAEILILADLHSADQLKTQAVDFINYHASDVLETSGWKSMVVSHPHLVAEAYRSLASAQCPFLGPPRKRLKQS [F133V] | with no effect

Variants of: B1
Conditions: with if4e_human EIF4E

Variant | effect of a mutation on the interaction
MSRVPSPPPPAEMSSGPVAESWCYTQIKVVKFSYMWTINNFSFCREEMGEVIKSSTFSSGANDKLKWCLRVNPKGLDEESKDYLSLYLLLVSCPKSEVRAKFKFSILNAKGEETKAMESQRAYRFVQGKDWGVKKFIRRDFLLDEANGLLPDDKLTLFCEVSVVQDSVNISGQNTMNMVKVPECRLADELGGLWENSRFTDCCLCVAGQEFQAHKAILAARSPVFSAMFEHEMEESKKNRVEINDVEPEVFKEMMCFIYTGKAPNLDKMADDLLAAADKYALERLKVMCEDALCSNLSVENAAEILILADLHSADQLKTQAVDFINYHASDVLETSGWKSMVVSHPHLVAEAYRSLASAQCPFLGPPRKRLKQS [F133V] | with no effect

Variants of: B1
Conditions: with epha7_human EPHA7, Q15375
epha7_human EPHA7, Q15375, sequence (Q15375 whole entry, looked up): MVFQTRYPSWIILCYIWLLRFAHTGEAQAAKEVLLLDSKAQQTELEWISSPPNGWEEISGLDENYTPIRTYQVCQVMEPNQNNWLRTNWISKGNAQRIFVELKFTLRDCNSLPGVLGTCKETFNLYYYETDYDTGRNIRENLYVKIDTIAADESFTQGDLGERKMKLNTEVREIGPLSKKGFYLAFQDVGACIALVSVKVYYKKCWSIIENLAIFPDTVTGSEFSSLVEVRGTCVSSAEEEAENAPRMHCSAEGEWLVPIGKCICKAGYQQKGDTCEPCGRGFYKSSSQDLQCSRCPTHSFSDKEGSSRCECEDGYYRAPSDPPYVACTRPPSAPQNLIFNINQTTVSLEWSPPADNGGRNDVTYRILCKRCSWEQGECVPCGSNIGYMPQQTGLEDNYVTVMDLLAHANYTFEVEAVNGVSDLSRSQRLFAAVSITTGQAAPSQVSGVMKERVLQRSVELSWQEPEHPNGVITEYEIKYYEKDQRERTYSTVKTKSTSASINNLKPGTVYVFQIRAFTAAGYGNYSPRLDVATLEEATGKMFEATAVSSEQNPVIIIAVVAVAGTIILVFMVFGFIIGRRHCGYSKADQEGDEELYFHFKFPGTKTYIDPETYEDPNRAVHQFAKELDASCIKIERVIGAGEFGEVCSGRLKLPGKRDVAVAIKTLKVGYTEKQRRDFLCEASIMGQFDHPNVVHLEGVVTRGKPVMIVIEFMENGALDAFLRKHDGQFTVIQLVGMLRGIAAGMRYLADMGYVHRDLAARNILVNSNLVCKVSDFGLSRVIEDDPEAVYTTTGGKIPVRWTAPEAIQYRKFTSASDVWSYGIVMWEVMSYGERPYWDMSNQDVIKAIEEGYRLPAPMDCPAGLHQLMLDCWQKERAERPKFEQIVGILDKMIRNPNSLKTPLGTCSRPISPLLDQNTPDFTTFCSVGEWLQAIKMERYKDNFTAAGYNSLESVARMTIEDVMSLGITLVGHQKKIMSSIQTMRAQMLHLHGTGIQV

Variant | effect of a mutation on the interaction
MSRVPSPPPPAEMSSGPVAESWCYTQIKVVKFSYMWTINNFSFCREEMGEVIKSSTFSSGANDKLKWCLRVNPKGLDEESKDYLSLYLLLVSCPKSEVRAKFKFSILNAKGEETKAMESQRAYRFVQGKDWGVKKFIRRDFLLDEANGLLPDDKLTLFCEVSVVQDSVNISGQNTMNMVKVPECRLADELGGLWENSRFTDCCLCVAGQEFQAHKAILAARSPVFSAMFEHEMEESKKNRVEINDVEPEVFKEMMCFIYTGKAPNLDKMADDLLAAADKYALERLKVMCEDALCSNLSVENAAEILILADLHSADQLKTQAVDFINYHASDVLETSGWKSMVVSHPHLVAEAYRSLASAQCPFLGPPRKRLKQS [F133V] | with no effect

Variants of: B1
Conditions: with ephb1_human EPHB1, P54762
ephb1_human EPHB1, P54762, sequence (P54762 whole entry): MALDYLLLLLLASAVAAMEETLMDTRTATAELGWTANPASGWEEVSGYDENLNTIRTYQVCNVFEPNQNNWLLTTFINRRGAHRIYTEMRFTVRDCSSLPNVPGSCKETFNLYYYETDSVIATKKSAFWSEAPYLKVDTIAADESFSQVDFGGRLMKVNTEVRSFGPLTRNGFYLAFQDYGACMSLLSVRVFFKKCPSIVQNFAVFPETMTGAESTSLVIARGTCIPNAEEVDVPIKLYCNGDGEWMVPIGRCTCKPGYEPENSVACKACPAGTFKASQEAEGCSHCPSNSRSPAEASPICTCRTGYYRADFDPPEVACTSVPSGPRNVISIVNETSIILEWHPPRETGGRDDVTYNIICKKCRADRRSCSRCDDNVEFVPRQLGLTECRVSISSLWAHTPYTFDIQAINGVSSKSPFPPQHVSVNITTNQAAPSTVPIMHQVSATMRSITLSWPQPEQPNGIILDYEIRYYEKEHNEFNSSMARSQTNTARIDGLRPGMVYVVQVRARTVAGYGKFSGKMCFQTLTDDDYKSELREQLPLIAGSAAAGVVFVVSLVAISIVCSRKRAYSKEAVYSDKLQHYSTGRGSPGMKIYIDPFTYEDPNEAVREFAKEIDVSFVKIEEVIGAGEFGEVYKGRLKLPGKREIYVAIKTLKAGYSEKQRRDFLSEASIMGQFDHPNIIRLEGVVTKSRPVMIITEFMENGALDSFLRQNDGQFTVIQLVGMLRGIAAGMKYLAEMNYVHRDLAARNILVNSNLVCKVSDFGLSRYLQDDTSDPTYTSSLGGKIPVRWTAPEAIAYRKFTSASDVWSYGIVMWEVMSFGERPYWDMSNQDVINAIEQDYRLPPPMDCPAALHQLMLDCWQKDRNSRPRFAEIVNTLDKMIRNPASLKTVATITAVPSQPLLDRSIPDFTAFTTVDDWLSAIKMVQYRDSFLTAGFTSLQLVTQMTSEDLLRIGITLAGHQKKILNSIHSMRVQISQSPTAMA

Variant | effect of a mutation on the interaction
MSRVPSPPPPAEMSSGPVAESWCYTQIKVVKFSYMWTINNFSFCREEMGEVIKSSTFSSGANDKLKWCLRVNPKGLDEESKDYLSLYLLLVSCPKSEVRAKFKFSILNAKGEETKAMESQRAYRFVQGKDWGVKKFIRRDFLLDEANGLLPDDKLTLFCEVSVVQDSVNISGQNTMNMVKVPECRLADELGGLWENSRFTDCCLCVAGQEFQAHKAILAARSPVFSAMFEHEMEESKKNRVEINDVEPEVFKEMMCFIYTGKAPNLDKMADDLLAAADKYALERLKVMCEDALCSNLSVENAAEILILADLHSADQLKTQAVDFINYHASDVLETSGWKSMVVSHPHLVAEAYRSLASAQCPFLGPPRKRLKQS [F133V] | with no effect

Variants of: B1
Conditions: with erbb3_human ERBB3, P21860

Variant | effect of a mutation on the interaction
MSRVPSPPPPAEMSSGPVAESWCYTQIKVVKFSYMWTINNFSFCREEMGEVIKSSTFSSGANDKLKWCLRVNPKGLDEESKDYLSLYLLLVSCPKSEVRAKFKFSILNAKGEETKAMESQRAYRFVQGKDWGVKKFIRRDFLLDEANGLLPDDKLTLFCEVSVVQDSVNISGQNTMNMVKVPECRLADELGGLWENSRFTDCCLCVAGQEFQAHKAILAARSPVFSAMFEHEMEESKKNRVEINDVEPEVFKEMMCFIYTGKAPNLDKMADDLLAAADKYALERLKVMCEDALCSNLSVENAAEILILADLHSADQLKTQAVDFINYHASDVLETSGWKSMVVSHPHLVAEAYRSLASAQCPFLGPPRKRLKQS [F133V] | with no effect

Variants of: B1
Conditions: with erbb4_human ERBB4, Q15303

Variant | effect of a mutation on the interaction
MSRVPSPPPPAEMSSGPVAESWCYTQIKVVKFSYMWTINNFSFCREEMGEVIKSSTFSSGANDKLKWCLRVNPKGLDEESKDYLSLYLLLVSCPKSEVRAKFKFSILNAKGEETKAMESQRAYRFVQGKDWGVKKFIRRDFLLDEANGLLPDDKLTLFCEVSVVQDSVNISGQNTMNMVKVPECRLADELGGLWENSRFTDCCLCVAGQEFQAHKAILAARSPVFSAMFEHEMEESKKNRVEINDVEPEVFKEMMCFIYTGKAPNLDKMADDLLAAADKYALERLKVMCEDALCSNLSVENAAEILILADLHSADQLKTQAVDFINYHASDVLETSGWKSMVVSHPHLVAEAYRSLASAQCPFLGPPRKRLKQS [F133V] | with no effect

Variants of: B1
Conditions: with esr1_human ESR1, P03372
esr1_human ESR1, P03372, sequence (P03372 whole entry): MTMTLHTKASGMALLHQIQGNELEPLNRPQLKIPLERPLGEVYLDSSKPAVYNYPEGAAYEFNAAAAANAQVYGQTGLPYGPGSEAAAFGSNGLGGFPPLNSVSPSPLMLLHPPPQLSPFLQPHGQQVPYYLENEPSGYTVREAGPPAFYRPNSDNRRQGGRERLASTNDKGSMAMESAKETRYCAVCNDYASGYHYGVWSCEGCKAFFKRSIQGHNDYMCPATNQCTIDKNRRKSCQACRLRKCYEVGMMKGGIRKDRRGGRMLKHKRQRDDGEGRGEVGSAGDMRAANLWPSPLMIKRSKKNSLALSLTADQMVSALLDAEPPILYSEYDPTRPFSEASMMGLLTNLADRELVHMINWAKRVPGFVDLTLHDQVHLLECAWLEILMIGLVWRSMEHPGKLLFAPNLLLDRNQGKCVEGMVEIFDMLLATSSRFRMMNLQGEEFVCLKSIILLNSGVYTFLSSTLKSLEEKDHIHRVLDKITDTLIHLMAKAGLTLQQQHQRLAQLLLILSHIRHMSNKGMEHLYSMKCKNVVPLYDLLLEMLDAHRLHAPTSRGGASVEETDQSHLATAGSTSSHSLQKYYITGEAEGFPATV

Variant | effect of a mutation on the interaction
MSRVPSPPPPAEMSSGPVAESWCYTQIKVVKFSYMWTINNFSFCREEMGEVIKSSTFSSGANDKLKWCLRVNPKGLDEESKDYLSLYLLLVSCPKSEVRAKFKFSILNAKGEETKAMESQRAYRFVQGKDWGVKKFIRRDFLLDEANGLLPDDKLTLFCEVSVVQDSVNISGQNTMNMVKVPECRLADELGGLWENSRFTDCCLCVAGQEFQAHKAILAARSPVFSAMFEHEMEESKKNRVEINDVEPEVFKEMMCFIYTGKAPNLDKMADDLLAAADKYALERLKVMCEDALCSNLSVENAAEILILADLHSADQLKTQAVDFINYHASDVLETSGWKSMVVSHPHLVAEAYRSLASAQCPFLGPPRKRLKQS [F133V] | with no effect

Variants of: B1
Conditions: with etv1_human ETV1, P50549
etv1_human ETV1, P50549, sequence (P50549 whole entry): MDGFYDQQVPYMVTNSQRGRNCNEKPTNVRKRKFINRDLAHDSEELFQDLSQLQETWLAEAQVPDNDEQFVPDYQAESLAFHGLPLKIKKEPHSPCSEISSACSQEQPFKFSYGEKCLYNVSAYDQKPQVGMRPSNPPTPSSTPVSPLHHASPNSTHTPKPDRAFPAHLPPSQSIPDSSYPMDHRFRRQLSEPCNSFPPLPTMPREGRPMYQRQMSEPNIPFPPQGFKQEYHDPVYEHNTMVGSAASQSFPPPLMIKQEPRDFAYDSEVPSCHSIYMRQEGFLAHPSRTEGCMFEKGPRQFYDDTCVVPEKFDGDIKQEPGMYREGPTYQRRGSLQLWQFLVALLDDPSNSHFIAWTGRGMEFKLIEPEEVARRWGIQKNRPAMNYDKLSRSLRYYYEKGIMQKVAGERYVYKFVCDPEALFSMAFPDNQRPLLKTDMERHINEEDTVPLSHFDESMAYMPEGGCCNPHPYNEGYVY

Variant | effect of a mutation on the interaction
MSRVPSPPPPAEMSSGPVAESWCYTQIKVVKFSYMWTINNFSFCREEMGEVIKSSTFSSGANDKLKWCLRVNPKGLDEESKDYLSLYLLLVSCPKSEVRAKFKFSILNAKGEETKAMESQRAYRFVQGKDWGVKKFIRRDFLLDEANGLLPDDKLTLFCEVSVVQDSVNISGQNTMNMVKVPECRLADELGGLWENSRFTDCCLCVAGQEFQAHKAILAARSPVFSAMFEHEMEESKKNRVEINDVEPEVFKEMMCFIYTGKAPNLDKMADDLLAAADKYALERLKVMCEDALCSNLSVENAAEILILADLHSADQLKTQAVDFINYHASDVLETSGWKSMVVSHPHLVAEAYRSLASAQCPFLGPPRKRLKQS [F133V] | with no effect

Variants of: B1
Conditions: with ezh1_human EZH1, Q92800
ezh1_human EZH1, Q92800, sequence (Q92800 whole entry): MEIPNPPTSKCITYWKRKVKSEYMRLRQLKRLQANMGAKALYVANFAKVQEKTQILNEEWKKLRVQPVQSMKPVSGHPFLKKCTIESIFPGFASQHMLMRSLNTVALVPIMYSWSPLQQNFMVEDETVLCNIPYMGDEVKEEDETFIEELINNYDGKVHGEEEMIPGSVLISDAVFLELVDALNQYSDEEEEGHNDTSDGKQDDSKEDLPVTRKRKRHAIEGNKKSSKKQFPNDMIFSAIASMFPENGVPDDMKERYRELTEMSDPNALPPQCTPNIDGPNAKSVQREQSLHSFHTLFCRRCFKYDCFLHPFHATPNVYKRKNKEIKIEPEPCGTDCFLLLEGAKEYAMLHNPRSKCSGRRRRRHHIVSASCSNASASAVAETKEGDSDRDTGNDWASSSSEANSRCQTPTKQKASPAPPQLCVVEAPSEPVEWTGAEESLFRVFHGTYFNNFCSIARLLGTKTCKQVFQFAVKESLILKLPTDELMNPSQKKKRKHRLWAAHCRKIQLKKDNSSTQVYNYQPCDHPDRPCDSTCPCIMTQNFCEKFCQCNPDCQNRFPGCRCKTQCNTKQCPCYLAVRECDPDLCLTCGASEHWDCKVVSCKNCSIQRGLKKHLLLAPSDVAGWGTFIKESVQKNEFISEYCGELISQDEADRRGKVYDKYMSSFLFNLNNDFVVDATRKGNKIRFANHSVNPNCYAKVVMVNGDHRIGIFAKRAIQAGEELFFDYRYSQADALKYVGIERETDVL

Variant | effect of a mutation on the interaction
MSRVPSPPPPAEMSSGPVAESWCYTQIKVVKFSYMWTINNFSFCREEMGEVIKSSTFSSGANDKLKWCLRVNPKGLDEESKDYLSLYLLLVSCPKSEVRAKFKFSILNAKGEETKAMESQRAYRFVQGKDWGVKKFIRRDFLLDEANGLLPDDKLTLFCEVSVVQDSVNISGQNTMNMVKVPECRLADELGGLWENSRFTDCCLCVAGQEFQAHKAILAARSPVFSAMFEHEMEESKKNRVEINDVEPEVFKEMMCFIYTGKAPNLDKMADDLLAAADKYALERLKVMCEDALCSNLSVENAAEILILADLHSADQLKTQAVDFINYHASDVLETSGWKSMVVSHPHLVAEAYRSLASAQCPFLGPPRKRLKQS [F133V] | with no effect

Variants of: B1
Conditions: with ezh2_human EZH2, Q15910
ezh2_human EZH2, Q15910, sequence (Q15910 whole entry, looked up): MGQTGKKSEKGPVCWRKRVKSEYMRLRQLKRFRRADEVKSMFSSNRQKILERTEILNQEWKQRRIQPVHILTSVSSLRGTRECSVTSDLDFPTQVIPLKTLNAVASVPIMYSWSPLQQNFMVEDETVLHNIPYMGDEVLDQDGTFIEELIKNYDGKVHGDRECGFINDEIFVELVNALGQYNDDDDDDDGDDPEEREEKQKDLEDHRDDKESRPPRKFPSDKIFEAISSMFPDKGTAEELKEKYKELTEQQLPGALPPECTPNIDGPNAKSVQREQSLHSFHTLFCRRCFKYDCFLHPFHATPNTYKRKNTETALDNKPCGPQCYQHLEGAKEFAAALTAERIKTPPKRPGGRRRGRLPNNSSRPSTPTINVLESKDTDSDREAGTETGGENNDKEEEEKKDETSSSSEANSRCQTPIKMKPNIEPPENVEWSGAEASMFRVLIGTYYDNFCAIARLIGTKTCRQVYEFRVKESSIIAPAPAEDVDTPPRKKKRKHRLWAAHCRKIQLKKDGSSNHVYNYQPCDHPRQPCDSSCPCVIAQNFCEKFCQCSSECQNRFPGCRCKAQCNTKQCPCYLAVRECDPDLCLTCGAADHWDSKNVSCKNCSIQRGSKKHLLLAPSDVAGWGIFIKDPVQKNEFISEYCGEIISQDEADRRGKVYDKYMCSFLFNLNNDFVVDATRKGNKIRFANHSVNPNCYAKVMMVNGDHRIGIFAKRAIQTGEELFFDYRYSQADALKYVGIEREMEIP

Variant | effect of a mutation on the interaction
MSRVPSPPPPAEMSSGPVAESWCYTQIKVVKFSYMWTINNFSFCREEMGEVIKSSTFSSGANDKLKWCLRVNPKGLDEESKDYLSLYLLLVSCPKSEVRAKFKFSILNAKGEETKAMESQRAYRFVQGKDWGVKKFIRRDFLLDEANGLLPDDKLTLFCEVSVVQDSVNISGQNTMNMVKVPECRLADELGGLWENSRFTDCCLCVAGQEFQAHKAILAARSPVFSAMFEHEMEESKKNRVEINDVEPEVFKEMMCFIYTGKAPNLDKMADDLLAAADKYALERLKVMCEDALCSNLSVENAAEILILADLHSADQLKTQAVDFINYHASDVLETSGWKSMVVSHPHLVAEAYRSLASAQCPFLGPPRKRLKQS [F133V] | with no effect

Variants of: B1
Conditions: with facd2_human FANCD2, Q9BXW9

Variant | effect of a mutation on the interaction
MSRVPSPPPPAEMSSGPVAESWCYTQIKVVKFSYMWTINNFSFCREEMGEVIKSSTFSSGANDKLKWCLRVNPKGLDEESKDYLSLYLLLVSCPKSEVRAKFKFSILNAKGEETKAMESQRAYRFVQGKDWGVKKFIRRDFLLDEANGLLPDDKLTLFCEVSVVQDSVNISGQNTMNMVKVPECRLADELGGLWENSRFTDCCLCVAGQEFQAHKAILAARSPVFSAMFEHEMEESKKNRVEINDVEPEVFKEMMCFIYTGKAPNLDKMADDLLAAADKYALERLKVMCEDALCSNLSVENAAEILILADLHSADQLKTQAVDFINYHASDVLETSGWKSMVVSHPHLVAEAYRSLASAQCPFLGPPRKRLKQS [F133V] | with no effect

Variants of: B1
Conditions: with fgf19_human FGF19, O95750
fgf19_human FGF19, O95750, sequence (O95750 whole entry): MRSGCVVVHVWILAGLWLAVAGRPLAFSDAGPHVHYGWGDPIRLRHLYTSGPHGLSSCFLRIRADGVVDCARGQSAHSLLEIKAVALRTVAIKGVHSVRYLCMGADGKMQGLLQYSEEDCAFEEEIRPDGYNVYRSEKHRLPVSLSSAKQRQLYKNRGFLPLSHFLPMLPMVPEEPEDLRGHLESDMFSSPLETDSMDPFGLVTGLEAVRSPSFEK

Variant | effect of a mutation on the interaction
MSRVPSPPPPAEMSSGPVAESWCYTQIKVVKFSYMWTINNFSFCREEMGEVIKSSTFSSGANDKLKWCLRVNPKGLDEESKDYLSLYLLLVSCPKSEVRAKFKFSILNAKGEETKAMESQRAYRFVQGKDWGVKKFIRRDFLLDEANGLLPDDKLTLFCEVSVVQDSVNISGQNTMNMVKVPECRLADELGGLWENSRFTDCCLCVAGQEFQAHKAILAARSPVFSAMFEHEMEESKKNRVEINDVEPEVFKEMMCFIYTGKAPNLDKMADDLLAAADKYALERLKVMCEDALCSNLSVENAAEILILADLHSADQLKTQAVDFINYHASDVLETSGWKSMVVSHPHLVAEAYRSLASAQCPFLGPPRKRLKQS [F133V] | with no effect

Variants of: B1
Conditions: with fgfp1_human FGFBP1, Q14512

Variant | effect of a mutation on the interaction
MSRVPSPPPPAEMSSGPVAESWCYTQIKVVKFSYMWTINNFSFCREEMGEVIKSSTFSSGANDKLKWCLRVNPKGLDEESKDYLSLYLLLVSCPKSEVRAKFKFSILNAKGEETKAMESQRAYRFVQGKDWGVKKFIRRDFLLDEANGLLPDDKLTLFCEVSVVQDSVNISGQNTMNMVKVPECRLADELGGLWENSRFTDCCLCVAGQEFQAHKAILAARSPVFSAMFEHEMEESKKNRVEINDVEPEVFKEMMCFIYTGKAPNLDKMADDLLAAADKYALERLKVMCEDALCSNLSVENAAEILILADLHSADQLKTQAVDFINYHASDVLETSGWKSMVVSHPHLVAEAYRSLASAQCPFLGPPRKRLKQS [F133V] | with no effect

Variants of: B1
Conditions: with fgfr4_human FGFR4, P22455

Variant | effect of a mutation on the interaction
MSRVPSPPPPAEMSSGPVAESWCYTQIKVVKFSYMWTINNFSFCREEMGEVIKSSTFSSGANDKLKWCLRVNPKGLDEESKDYLSLYLLLVSCPKSEVRAKFKFSILNAKGEETKAMESQRAYRFVQGKDWGVKKFIRRDFLLDEANGLLPDDKLTLFCEVSVVQDSVNISGQNTMNMVKVPECRLADELGGLWENSRFTDCCLCVAGQEFQAHKAILAARSPVFSAMFEHEMEESKKNRVEINDVEPEVFKEMMCFIYTGKAPNLDKMADDLLAAADKYALERLKVMCEDALCSNLSVENAAEILILADLHSADQLKTQAVDFINYHASDVLETSGWKSMVVSHPHLVAEAYRSLASAQCPFLGPPRKRLKQS [F133V] | with no effect

Variants of: B1
Conditions: with fumh_human FH

Variant | effect of a mutation on the interaction
MSRVPSPPPPAEMSSGPVAESWCYTQIKVVKFSYMWTINNFSFCREEMGEVIKSSTFSSGANDKLKWCLRVNPKGLDEESKDYLSLYLLLVSCPKSEVRAKFKFSILNAKGEETKAMESQRAYRFVQGKDWGVKKFIRRDFLLDEANGLLPDDKLTLFCEVSVVQDSVNISGQNTMNMVKVPECRLADELGGLWENSRFTDCCLCVAGQEFQAHKAILAARSPVFSAMFEHEMEESKKNRVEINDVEPEVFKEMMCFIYTGKAPNLDKMADDLLAAADKYALERLKVMCEDALCSNLSVENAAEILILADLHSADQLKTQAVDFINYHASDVLETSGWKSMVVSHPHLVAEAYRSLASAQCPFLGPPRKRLKQS [F133V] | with no effect
